B1: KPB202: human anti-O1 antigen antibody from tonsillar B cells, VH SEQ ID NO:39, VL SEQ ID NO:40, IgG1 (antibody, V domains shown)
VH: EVQLVESGGGLVQPGGSLSLSCAASGFTFSNFWVGWGRQAPGKGLEWVANINPDGSEKYYVDSVKGRVTISRDNAKNSLSLQMNSLRVEDAAVYYCARLGPFHPDCWGQGTLVTVSS
VL: DVVMTQSPLSLPVTLGQPASISCRSSQSLVHSDGNTYLNWFQQRPGQSPRRLIYEVSNRDSGVPDRFSGSGSGTDFTLKISRVEAEDIGVYYCMQGTHWPWTFGQGTKVEIK
modifications: KPB202 VH Amino Acid Sequence; KPB202 VL Amino Acid Sequence
B2: KPJ4: human anti-O1 antigen antibody from tonsillar B cells, VH SEQ ID NO:30, VL SEQ ID NO:31, IgG2 (antibody, V domains shown)
VH: QVQLQQSGPGLVRPSQTLSLTCAISGDSVSSNTAAWNWIRQSPSRGLEWLGRTYYRSEWYNDYAVSVKSRITINPDTSKNQFSLQLNSVTPEDTAVYYCARISWNDLPAWGQGTLVTVSS
VL: DIVMTQSPDSLAVSLGERATINCKSSQSILYSSHNKNYLAWYQQKPGQPPKVLIYWASTRESGVPDRFSGSGSGTDFTLTISNLQAEDVAVYYCQQYCNIPYTFGQGTKLEIK
modifications: IgG2 constant regions; KBJ4 VH Amino Acid Sequence; KPJ4 VL Amino Acid Sequence
B3: KPA27: human anti-O1 antigen antibody, VH SEQ ID NO:21, VL SEQ ID NO:22, isolated as IgG2 (antibody, V domains shown)
VH: QVQLVQSGAEVKKPGASVKVSCKASENTFNDFYMHWVRQAPGQGLEWMGWIHPDGVVTNYAQKFQGRVTMTRDTSINTVYMELNGLISDDTAVYYCMRDGPGSEGSWFDYWGQGTLVTVSS
VL: DIQMTQSPSTLSASVGDRVTITCRASQPVSNRLAWYQQKPGRAPTLLIYKASTLQSGVPLRFSGSGSGTEFTLTISSLQSDDFATYYCQQSQTFGQGTKVEIK
modifications: KPA27 VH Amino Acid Sequence; KPA27 VL Amino Acid Sequence
B4: KPE33V2016: sequence optimized KPE33, VH SEQ ID NO:12, VL SEQ ID NO:13 (antibody, V domains shown)
VH: EVQLVESGGGLVQPGRSLRLSCAASGFIFDDYAMHWVRQAPGKGLEWVSGIAWKSGATNYADSVKGRFAISRDNSKKSMYLQMNSLGTEDTALYYCTRRRASGDDTFYYFDYWGQGTLVTVSS
VL: EIVLTQSPATLSLSPGERATLSCRASQNVNTNLAWYQQKPGQAPRLLIYDASNRATGIPARFSGSGSGTDFTLTISSLEPEDFAVYYCQQTTNWRYTFGQGTKLEIK
modifications: KPE33V2016 VH Amino Acid Sequence; KPE33V2016 VL Amino Acid Sequence

Tests used:
[1] = molecular target: LPS (O1); test: LPS neutralization assay, RAW264.7-lux NF-κB luciferase reporter; format: cell-based, murine
Method: LPS neutralization was assayed by utilizing a murine RAW264.7 macrophage cell line carrying a firefly luciferase reporter gene under the control of an NF-κB-responsive promoter (RAW264.7-lux). Serially diluted antibody stocks were mixed with LPS in a 1:1 ratio and incubated at 4° C. for 1 hr. Antibody/LPS mixture was then diluted 1:10 into assay plates containing pre-seeded RAW264.7-lux cells (5e3 cells/well), which were then placed at 37° C./5% CO2 for 2.5 hours. Following incubations, Steady Glo (Promega) was then added to each well and incubated for another 20 min protected from light. The relative light units (RLUs) were then measured using an Envision Multilabel plate reader (Perkin Elmer). The percentage of inhibition was determined by comparing RLU derived from assays with no antibodies to RLU obtained from anti-K. pneumoniae mAbs and a negative control mAb. Activation of TLR4 receptors by bacterial LPS leads to downstream activation of the NF-κB transcriptional regulator. A decrease in induction of NF-κB-responsive luciferase activity was used to quantify LPS neutralization activity by LPS mAbs.

[2] = tested on: K. pneumoniae capsule mutant strain 43816ΔcpsB Lux; test: bioluminescent opsonophagocytic killing (OPK) assay with HL-60 cells; format: cell-based, Klebsiella pneumoniae; conditions: for induction of OPK killing: FIG. 1C
Method: (§1) PBMC donors were ranked based on their binding titers as well as their SBA and OPK activity. OPK assays were performed as described with modifications (Wang, Q. et al. Target-Agnostic Identification of Functional Monoclonal Antibodies Against Klebsiella pneumoniae Multimeric MrkA Fimbrial Subunit J Infect Dis. 2016 Jun. 1; 213(11):1800-8). Briefly, log phase cultures of luminescent K. pneumoniae capsule mutant strain 43816ΔcpsB (43816ΔcpsB Lux) were diluted to ˜2×10^6 cells/ml. Bacteria, diluted baby rabbit serum providing complement (Cedarlane, pre-absorbed with Kp43816ΔcpsB, 1:10), dimethylformamide (DMF) differentiated HL-60 cells, and sera were mixed in 384-well plates and incubated at 37° C. for two hours with shaking (250 rpm). The relative light units (RLUs) were then measured using an Envision Multilabel plate reader (Perkin Elmer). The percentage of killing was determined by comparing RLU derived from assays with no antibodies to RLU obtained from human sera.
as §1, with “OPK” for “PBMC donors were ranked based on their binding titers as well as their SBA and OPK activity. OPK”, “al., J. Infect.” for “al. Target-Agnostic Identification of Functional Monoclonal Antibodies Against Klebsiella pneumoniae Multimeric MrkA Fimbrial Subunit J Infect”, “213:1800-8 (2016)).” for “2016 Jun. 1; 213(11):1800-8).”, “antibodies” for “sera”, “anti-K. pneumoniae mAbs and a negative control mAb.” for “human sera.”

[3] = tested on: K. pneumoniae strain Kp4211 lux; test: high throughput serum bactericidal assay (SBA), complement-dependent killing; format: cell-based, Klebsiella pneumoniae; conditions: for complement-dependent killing in SBA: FIG. 1B; for complement-dependent killing (SBA) in primary screening: strain Kp4211 (LPS-O1)
Method: Peripheral blood mononuclear cells (PBMC) and sera were separated from buffy coats from healthy blood donors (N=567). PMBC were stored in liquid nitrogen whereas the plasma was stored at 4° C. To identify Klebsiella pneumoniae immune donors, all the available sera were tested for binding to Kp43816 and Kp4211 (LPS-O1 serotype), as well as to the unencapsulated mutant strain Kp43816ΔcpsB and the double mutant Kp43816ΔcpsBΔwaaL. […] In addition, all available sera were tested for their bactericidal activity in the presence of complement using a high-throughput serum bactericidal assay (SBA assay). Overnight cultures of luminescent K. pneumoniae strain 4211 (lux) were diluted in Muller Hinton II media to make OD600 to be 0.003. Equal volume of sera, 4211 lux, and baby rabbit serum (Cedarlane) were mixed in 384 well plates and incubated at 37° C. for two hours with shaking (250 rpm). The relative light units (RLUs) were then measured using an Envision Multilabel plate reader (Perkin Elmer). The percentage of killing was determined by comparing RLU derived from assays with no antibodies to RLU obtained from human sera.
The susceptibility of the K. pneumoniae strain Kp4211 lux to serum and antibody dependent killing was measured by high throughput serum bactericidal assay (SBA). Overnight cultures of luminescent K. pneumoniae strain 4211 (lux) were diluted in Muller Hinton II media to make OD600 to be 0.003. Equal volume of antibodies, 4211 lux, and baby rabbit serum (Cedarlane) were mixed in 384 well plates and incubated at 37° C. for two hours with shaking (250 rpm). The relative light units (RLUs) were then measured using an Envision Multilabel plate reader (Perkin Elmer). The percentage of killing was determined by comparing RLU derived from assays with no antibodies to RLU obtained from anti-K. pneumoniae mAbs and a negative control mAb.

[4] = tested on: Klebsiella pneumoniae of the LPS-O1 serotype; test: primary screening, binding to whole bacteria
From the text: KPA27 and KPE33 were isolated from the peripheral blood of two different immune donors: #487 and #262, respectively. […] KPA27 and KPE33 were isolated from immune donors as IgG2 antibodies.
KPB202 and KPJ4 were isolated from tonsillar B cells of two different donors: T6 (KPB202) and T8 (KPJ4). […] KPB202 and KPJ4 were isolated from donors as IgG1 and IgG2 antibodies, respectively.

[5] = tested on: purified O1 LPS; test: ELISA binding to purified O1 LPS; design: species or system Klebsiella pneumoniae; conditions: FIG. 1A
Method: Binding to purified O1 LPS was assayed by standard ELISA method. Briefly, ELISA plates (Nunc MaxiSorp) were coated with purified O1 LPS in PBS, pH 7.2, overnight at 4 C, followed by blocking the plates with PBS supplemented with 1% BSA (PBS-B). The coated plates were incubated with series dilutions of monoclonal antibodies for 1 h at room temperature. The plates were then washed with PBS containing 0.1% Tween-20 (PBS-T) before HRP-conjugated anti-human secondary antibodies were added for 1 hour followed by TMB TMB (3,3′,5,5′-Tetrametheylbenzidine) substrates. The absorbance of 450 nm was measured by microplate reader (Molecular Devices) and the data were plotted with Prism software.

[6] = molecular target: O1 LPS; test: Octet binding affinity to O1 LPS; design: species or system Klebsiella pneumoniae; conditions: average, from on-rate and off-rate, read-out: affinity constant (KD) to O1 LPS
From the text: In order to reduce potential sequence liabilities for antibody development including potential immunogenicity due to anti-drug antibodies, an unpaired Cysteine in the light chain CDR3 of KPE33 was exchanged with Threonine (T), and somatic mutations in the frameworks 1, 2, and 4 of KPE33 were replaced with germ line residues (as summarized in FIG. 5). CDRs were maintained as wildtype, except for the C107T substitution described above. The optimized KPE33 was named KPE33v2016. […] This platform provides a powerful tool to measure the rate of biomolecular complex formation and complex stability in a more biologically meaningful setting. Briefly, Protein A coated sensors were coated with 2 μg/mL O1 LPS for 10 minutes before being dipped into solution containing 0.2 μg/mL anti-O1 LPS mAbs in Kinetics buffer (ForteBio, dilute 10× to 1× with PBS). Changes in the number of molecules bound to the biosensor caused a shift in the interference pattern that was recorded in real time. […] The affinity constant (KD) of KPE33 and KPE33v2016 to O1 LPS was calculated based on the on-rate and off-rate from Octet sensorgram.
KPE33v2016 was further optimized, thereby creating two new variants—KPE33 H32+L2016(1EQ) and KPE33 H33+L2016(1EQ). Both of these variants contain a Methionine to Isoleucine mutation adjacent to CDRH1, a Tryptophan to Tyrosine mutation in CDRH2, an Aspartate to Glutamate mutation adjacent to CDRH2, Asparagine to Glutamine and Methionine to Leucine mutations in FRH3 and an Aspartate to Asparagine mutation in CDRH3. In addition, KPE33 H32+L2016(1EQ) had four FRH3 residues changed to the germ-line residues, whereas KPE33 H33+L2016(1EQ) only has three of the same FRH3 residues changed to the germ-line. Both of these variants contain the same light chain as KPE33v2016, but with a single Glutamate to Glutamine mutation in residue 1.

| Molecule | LPS Neut (O1) IC50 [1] | LPS neutralization [1] | D Capsule OPK IC50 [2] | induction of OPK killing [2] | SBA Kp4211lux IC50 [3] | complement-dependent killing in SBA [3] | complement-dependent killing (SBA) in primary screening [3] | binding to bacteria in primary screening [4] | binding to purified O1 LPS [5] | Kd [6] |
| --- | --- | --- | --- | --- | --- | --- | --- | --- | --- | --- |
| B1 | 0.038 mg/L | neutralized LPS | 0.0009 mg/L | induced OPK killing | 0.0006 mg/L | kill K. pneumoniae via complement-dependent killing | mediate complement-dependent killing | bind to Klebsiella pneumoniae of the LPS-O1 serotype | bound to purified O1 LPS |  |
| B2 |  | did not | 0.011 mg/L | induced OPK killing | 0.11 mg/L | kill K. pneumoniae via complement-dependent killing | mediate complement-dependent killing | bind to Klebsiella pneumoniae of the LPS-O1 serotype | bound to purified O1 LPS |  |
| B3 |  | did not | 0.67 mg/L | induced OPK killing | 1.625 mg/L | kill K. pneumoniae via complement-dependent killing | mediate complement-dependent killing | bind to Klebsiella pneumoniae of the LPS-O1 serotype | bound to purified O1 LPS |  |
| B4 |  |  |  |  |  |  |  |  |  | 4.13 nM |
